Measurements: PMC7703752, “Proteome-level assessment of origin, prevalence and function of leucine-aspartic acid (LD) motifs” (Bioinformatics, 2019)
Where no end group is shown, it is not given here. The star is where a group is joined. FITC = O=C1OC2(c3ccc(O)cc3Oc3cc(O)ccc32)c2ccc(NC(=S)*)cc21; Ahx = NCCCCCC(=O)O

T1: FAT domain of human FAK (892-1052) (human, UniProt Q05397 892-1052)
T1 construct: focal adhesion kinase (FAK), human, FAT domain, residues 892-1052; 15N-labelled (M9 minimal medium) in the NMR titrations; also called FAK FAT; focal adhesion targeting domain; source: E. coli BL21, expressed as GST-fusion protein (pGexP2), purified as described previously (Arold et al., 2002)
T1 sequence (looked up): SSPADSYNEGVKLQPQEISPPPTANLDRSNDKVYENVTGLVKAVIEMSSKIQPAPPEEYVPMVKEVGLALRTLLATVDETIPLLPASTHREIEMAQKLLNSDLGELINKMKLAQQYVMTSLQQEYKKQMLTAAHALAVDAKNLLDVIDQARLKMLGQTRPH

T2: Human α-parvin-CHC (residues 242-372) (human, UniProt Q9NVD7 242-372)
T2 construct: α-parvin, human, C-terminal CH domain, residues 242-372; also called second CH domain of α-parvin; source: E. coli BL21, expressed as GST-fusion protein (pGex 6P1), purified as described previously (Lorenz et al., 2008)
T2 sequence (looked up): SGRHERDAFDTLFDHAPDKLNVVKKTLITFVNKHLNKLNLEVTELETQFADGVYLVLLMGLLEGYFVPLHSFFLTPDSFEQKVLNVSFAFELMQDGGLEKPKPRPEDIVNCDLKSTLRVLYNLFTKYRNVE

T3: Human α-parvin-CHC (residues 242–372) (human, UniProt Q9NVD7 242-372)
T3 construct: α-parvin, human, second CH domain (CHC), residues 242-372; Purification and fate of the GST are told only in the Supplementary Material and in the cited work (Lorenz et al., 2008); also called second CH domain of α-parvin; source: E. coli BL21, expressed as GST-fusion protein
T3 sequence (looked up): T2 sequence (looked up)

T4: FAT domain of human FAK (892–1052) (human, UniProt Q05397 892-1052)
T4 construct: focal adhesion kinase (FAK), human, FAT domain, residues 892-1052; 15N-labelled for the NMR titrations; Purification and fate of the GST are told only in the Supplementary Material and in the cited work (Arold et al., 2002); also called FAK FAT; four-helix FAT domain from FAK; source: E. coli BL21, expressed as GST-fusion protein
T4 sequence (looked up): T1 sequence (looked up)

T5: FAT domain of human FAK (892–1052) (human, UniProt Q05397 892-1052)
T5 chain: T1 sequence (looked up)

T6: Human α-parvin-CHC (residues 242–372) (human, UniProt Q9NVD7 242-372)
T6 chain: T2 sequence (looked up)

B1: C16orf71 LD motif peptide, unlabelled (peptide)
peptide: EAWDLDDILQSLQGQ
notes: Uncharacterized protein C16orf71, human; core motif 267-276; form without label, used in ACA and DSF; also called CP071; source: synthetic peptide, bought: GenScript
B2: CCDC158 LD motif peptide, unlabelled (peptide)
peptide: DPTRDLKQLLQELRSVIN
notes: core motif 903-912; form without label, used in ACA, DSF and NMR; also called CD158; source: synthetic peptide, bought: GenScript
B3: RALGAPA1 LD motif peptide, unlabelled (peptide)
peptide: EDVLDELLQYLGVT
notes: core motif 1680-1689; form without label, used in ACA and DSF; also called RGPA1; source: synthetic peptide, bought: GenScript
B4: PPP2R3A LD motif peptide, unlabelled (peptide)
peptide: SQEEIDKLLMDLESFSQ
notes: Serine/threonine-protein phosphatase 2A regulatory subunit B'' subunit alpha, human; core motif 508-517; form without label, used in ACA, DSF and ITC; source: synthetic peptide, bought: GenScript
B5: EPB41L5 LD motif peptide, unlabelled (peptide)
peptide: ATDELDALLASLTENLID
notes: Band 4.1-like protein 5, human; core motif 634-643; form without label, used in ACA, DSF and ITC; also called E41L5; Band 4.1-like protein 5 peptide; source: synthetic peptide, bought: GenScript
B6: LPP LD motif peptide, unlabelled (peptide)
peptide: AEIDSLTSILADLESS
notes: Lipoma-preferred partner, human; core motif 123-132; form without label, used in ACA, DSF and NMR; also called lipoma-preferred partner peptide; source: synthetic peptide, bought: GenScript
B7: C16orf71 LD motif peptide (peptide)
peptide: EAWDLDDILQSLQGQ
modifications: also: N-terminal FITC-Ahx only in labelled form
notes: predicted LD motif of human C16orf71; also called CP071; source: synthetic peptide, bought: GenScript
B8: LPP (Lipoma-preferred partner) LD motif peptide (peptide)
peptide: AEIDSLTSILADLESS
modifications: also: N-terminal FITC-Ahx only in labelled form
notes: predicted LD motif of human LPP (Lipoma-preferred partner); source: synthetic peptide, bought: GenScript
B9: CCDC158 LD motif peptide, FITC-Ahx-labelled (peptide)
peptide: {FITC-Ahx}-DPTRDLKQLLQELRSVIN
notes: core motif 903-912; labelled form, used in direct anisotropy and MST; also called CD158; source: synthetic peptide, bought: GenScript
B10: LPP LD motif peptide, FITC-Ahx-labelled (peptide)
peptide: {FITC-Ahx}-AEIDSLTSILADLESS
notes: Lipoma-preferred partner, human; core motif 123-132; labelled form, used in direct anisotropy and MST; source: synthetic peptide, bought: GenScript
B11: EPB41L5 LD motif peptide, FITC-Ahx-labelled (peptide)
peptide: {FITC-Ahx}-ATDELDALLASLTENLID
notes: Band 4.1-like protein 5, human; core motif 634-643; labelled form, used in direct anisotropy and MST; also called E41L5; source: synthetic peptide, bought: GenScript
B12: PPP2R3A LD motif peptide, FITC-Ahx-labelled (peptide)
peptide: {FITC-Ahx}-SQEEIDKLLMDLESFSQ
notes: Serine/threonine-protein phosphatase 2A regulatory subunit B'' subunit alpha, human; core motif 508-517; labelled form, used in direct anisotropy and MST; source: synthetic peptide, bought: GenScript

biological target: T1, FAT domain of human FAK (892-1052); experiment: fluorescence polarisation + other: differential scanning fluorimetry; the 'qualitative' methods, summed up in one sentence for each peptide: anisotropy competition (unlabelled peptide at 100 and 250 μM against 0.1 μM FITC-Ahx-LD4 with 10 μM FAT or 25 μM α-parvin) and DSF (10 μM protein, peptide at 100 and 250 μM; 20 mM HEPES pH 7.5, 150 mM NaCl, 2 mM EDTA, 1 mM TCEP); conditions: both partners purified

Question: Does B1 bind?
Answer: binds

Question: Does B2 bind?
Answer: binds

biological target: T2, Human α-parvin-CHC (residues 242-372); experiment: as above; conditions: both partners purified

Question: Does B1 bind?
Answer: binds

Question: Does B2 bind?
Answer: binds

biological target: T1, FAT domain of human FAK (892-1052); experiment: as above; conditions: both partners purified; remark: another data set of the same source

Question: Does B3 bind?
Answer: binds

Question: Does B4 bind?
Answer: binds

Question: Does B5 bind?
Answer: binds

biological target: T2, Human α-parvin-CHC (residues 242-372); experiment: as above; conditions: both partners purified; remark: another data set of the same source

Question: Does B3 bind?
Answer: binds

Question: Does B4 bind?
Answer: binds

Question: Does B5 bind?
Answer: binds

Question: Does B6 bind?
Answer: binds

biological target: T3, Human α-parvin-CHC (residues 242–372); experiment: fluorescence polarisation + MST + ITC + other: differential scanning fluorimetry; synthesized peptides against recombinant LDBDs in vitro; direct anisotropy with labelled candidate peptides, anisotropy competition of unlabelled peptides against fluorescently labelled known LD motifs, ITC, MST and DSF summed up together; 25°C, 20 mM HEPES pH 7.5, 150 mM NaCl, 2 mM EDTA, 1 mM TCEP, unless stated otherwise; conditions: both partners purified

Question: Does B7 bind?
Answer: binds

Question: Does B8 bind?
Answer: binds

biological target: T4, FAT domain of human FAK (892–1052); experiment: as above; conditions: both partners purified

Question: Does B7 bind?
Answer: binds

biological target: T1, FAT domain of human FAK (892-1052); experiment: fluorescence polarisation + MST; the 'quantitative' methods, summed up in one sentence for each peptide: direct anisotropy (protein serially diluted, FITC-Ahx peptide 0.1 μM; 20 mM HEPES pH 7.5, 150 mM NaCl, 2 mM EDTA, 2 mM DTT, 0.005% Tween-20; room temperature) and MST (protein diluted from 560 μM FAT or 530 μM α-parvin, labelled peptide 0.1 μM, 0.05% Tween-20, 25 °C); ITC in selected cases; conditions: both partners purified

Question: Does B9 bind?
Answer: binds

Biological target: T5, FAT domain of human FAK (892–1052)
Experiment: MST
Conditions: not given

Question: For SQEEIDKLLMDLESFSQ (also: N-terminal FITC-Ahx only in labelled form) [PPP2R3A LD motif peptide], which Kd is on record?
Answer: 90 µM

Question: How did the Kd turn out when B7 was run?
Answer: 17.2 µM

Question: How did the Kd turn out when SASSATRELDELMASLSD (also: N-terminal FITC-Ahx only in labelled form) [Paxillin LD4 peptide] was run?
Answer: 55.5 µM

Question: Which Kd does the source give for GDLDNLDAILGDLTSSD (also: N-terminal FITC-Ahx only in labelled form) [NCOA3 (nuclear receptor coactivator 3) LD motif peptide] here?
Answer: 261 µM

Question: For DAALDDLIDTLGGP (also: N-terminal FITC-Ahx only in labelled form) [CAST LD motif peptide], which Kd is on record?
Answer: 178 µM

Biological target: T6, Human α-parvin-CHC (residues 242–372)
Experiment: MST
Conditions: not given

Question: With AEIDSLTSILADLESS (also: also used as N-terminal FITC-Ahx-labelled form) as the binder, how does the Kd read?
Answer: 169 µM

Question: SELDNLEEILDDLQNSQ (also: N-terminal FITC-Ahx only in labelled form) [NCOA2 (nuclear receptor coactivator 2) LD motif peptide] was tested. Which Kd did it give?
Answer: 251 µM

Question: For B7, which Kd is on record?
Answer: 32.3 µM

Question: How did the Kd turn out when SASSATRELDELMASLSD (also: N-terminal FITC-Ahx only in labelled form) [Paxillin LD4 peptide] was run?
Answer: 3.1 µM

Question: SDWEVDDLLCSLLSPPA (also: N-terminal FITC-Ahx only in labelled form) [CREB3 LD motif peptide] was tested. Which Kd did it give?
Answer: 110 µM

Question: How did the Kd turn out when DAALDDLIDTLGGP (also: N-terminal FITC-Ahx only in labelled form) [CAST LD motif peptide] was run?
Answer: 273 µM

biological target: T1, FAT domain of human FAK (892-1052); experiment: fluorescence polarisation + MST; the 'quantitative' methods, summed up in one sentence for each peptide: direct anisotropy (protein serially diluted, FITC-Ahx peptide 0.1 μM; 20 mM HEPES pH 7.5, 150 mM NaCl, 2 mM EDTA, 2 mM DTT, 0.005% Tween-20; room temperature) and MST (protein diluted from 560 μM FAT or 530 μM α-parvin, labelled peptide 0.1 μM, 0.05% Tween-20, 25 °C); ITC in selected cases; conditions: both partners purified; remark: another data set of the same source

Question: Does B10 bind?
Answer: binds

Question: Does B11 bind?
Answer: binds

Question: Does B12 bind?
Answer: binds

biological target: T2, Human α-parvin-CHC (residues 242-372); experiment: as above; conditions: both partners purified

Question: Does B10 bind?
Answer: binds

Question: Does B11 bind?
Answer: binds

Question: Does B12 bind?
Answer: binds

Biological target: T5, FAT domain of human FAK (892–1052)
Experiment: FP
Conditions: not given

Question: For SQEEIDKLLMDLESFSQ (also: N-terminal FITC-Ahx only in labelled form) [PPP2R3A LD motif peptide], which Kd is on record?
Answer: 41 µM

Question: Which Kd does the source give for AEIDSLTSILADLESS (also: also used as N-terminal FITC-Ahx-labelled form) here?
Answer: 97.4 µM

Question: SASSATRELDELMASLSD (also: N-terminal FITC-Ahx only in labelled form) [Paxillin LD4 peptide] was tested. Which Kd did it give?
Answer: 7.1 µM

Question: For DPTRDLKQLLQELRSVIN (also: N-terminal FITC-Ahx only in labelled form) [CCDC158 (Coiled-coil domain-containing protein 158) LD motif peptide], which Kd is on record?
Answer: 41.6 µM

Biological target: T6, Human α-parvin-CHC (residues 242–372)
Experiment: FP
Conditions: not given

Question: Which Kd does the source give for SQEEIDKLLMDLESFSQ (also: N-terminal FITC-Ahx only in labelled form) [PPP2R3A LD motif peptide] here?
Answer: 23.3 µM

Question: For B7, which Kd is on record?
Answer: 52 µM

Question: Which Kd does the source give for SASSATRELDELMASLSD (also: N-terminal FITC-Ahx only in labelled form) [Paxillin LD4 peptide] here?
Answer: 24.5 µM

Question: How did the Kd turn out when SDWEVDDLLCSLLSPPA (also: N-terminal FITC-Ahx only in labelled form) [CREB3 LD motif peptide] was run?
Answer: 101 µM

Biological target: T5, FAT domain of human FAK (892–1052)
Experiment: ITC
Conditions: not given

Question: Which Kd does the source give for SQEEIDKLLMDLESFSQ (also: N-terminal FITC-Ahx only in labelled form) [PPP2R3A LD motif peptide] here?
Answer: 19.7 µM

Question: How did the Kd turn out when SASSATRELDELMASLSD (also: N-terminal FITC-Ahx only in labelled form) [Paxillin LD4 peptide] was run?
Answer: 19.7 µM
